# Reference: patent US11833164B2, “Methods of treating Fabry disease in patients having a mutation in the GLA gene” (Amicus Therapeutics, Inc., priority 2019, dated 2023)
# Positions count from the first letter of the chain named. Numbers in names are those of the source.
# B1: G144S (protein)
# chain: MQLRNPELHLGCALALRFLALVSWDIPGARALDNGLARTPTMGWLHWERFMCNLDCQEEPDSCISEKLFMEMAELMVSEGWKDAGYEYLCIDDCWMAPQRDSEGRLQADPQRFPHGIRQLANYVHSKGLKLGIYADVGNKTCASFPGSFGYYDIDAQTFADWGVDLLKFDGCYCDSLENLADGYKHMSLALNRTGRSIVYSCEWPLYMWPFQKPNYTEIRQYCNHWRNFADIDDSWKSIKSILDWTSFNQERIVDVAGPGGWNDPDMLVIGNFGLSWNQQVTQMALWAIMAAPLFMSNDLRHISPQAKALLQDKDVIAINQDPLGKQGYQLRQGDNFEVWERPLSGLAWAVAMINRQEIGGPRSYTIAVASLGKGVACNPACFITQLLPVKRKLGFYEWTSRLRSHINPTGTVLLQLENTMQMSLKDLL
# B2: F145C (protein)
# chain: B1 chain with S144G, F145C
# B3: F145L (protein)
# chain: B1 chain with S144G, F145L
# B4: F145V (protein)
# chain: B1 chain with S144G, F145V
# B5: F145Y (protein)
# chain: B1 chain with S144G, F145Y
# B6: P146A (protein)
# chain: B1 chain with S144G, P146A
# B7: P146H (protein)
# chain: B1 chain with S144G, P146H
# B8: P146L (protein)
# chain: B1 chain with S144G, P146L
# System: mutant form of α-Gal A expressed in HEK-293 cells
# Experiment: HEK assay (GLP HEK / Migalastat Amenability Assay): α-Gal A activity in lysates of transiently transfected HEK-293 cells incubated with or without 10 μM migalastat
# Type: cell-based, human
# Details: 10 μM migalastat versus baseline
# In short: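 Activity reported as 4-MU released (nmol/mg/hr), mean±SEM, from lysates of transiently transfected HEK-293 cells expressing mutant α-Gal A, cultured with or without 10 μM migalastat.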
row,Molecule,Absolute increase (% WT)
1,B1,30.4
2,B2,25.7
3,B3,61.8
4,B4,5.7
5,B5,23.5
6,B6,25.4
7,B7,21.8
8,B8,12.4

# Same assay, conditions: 10 μM migalastat α-Gal A activity relative to baseline
row,Molecule,Relative increase
1,B1,1.6
2,B2,14.4
3,B3,5.5
4,B5,1.2
5,B6,1.6
6,B7,3.7
7,B8,1.5

# Same assay, conditions: 10 μM migalastat, 5 days; percentage of baseline wild-type α-Gal A activity; mean ± SEM
row,Molecule,10 μM migalastat α-Gal A activity (% WT)
1,B1,78 ± 5.6
2,B2,27.8 ± 0.8
3,B3,75.7 ± 2.9
4,B4,5.7 ± 0.6
5,B5,131.7 ± 5.1
6,B6,64.1 ± 4.4
7,B7,30.2 ± 2.1
8,B8,37.1 ± 2.2

# Same assay, conditions: absence of migalastat; mean activity below the limit of detection (<142 nmol/mg/hr)
row,Molecule,Baseline α-Gal A activity (nmol/mg/hr)
1,B4,BLD (“BLD” indicates that the mean α-Gal A activity was below the limit of detection (<142 nmol/mg/hr))

# Same assay, conditions: absence of migalastat; percentage of baseline wild-type α-Gal A activity; mean ± SEM
row,Molecule,Baseline α-Gal A activity (% WT)
1,B1,47.6 ± 2.4
2,B2,2.1 ± 0.2
3,B3,13.9 ± 0.8
4,B5,108.1 ± 6.2
5,B6,38.7 ± 2.5
6,B7,8.5 ± 0.7
7,B8,24.7 ± 1.8

# Same assay, conditions: lysates of HEK-293 cells transfected with the mutant form, incubated 5 days in the absence of migalastat; mean ± SEM
row,Molecule,Baseline α-Gal A activity [nmol/mg/h]
1,B1,14190 ± 967
2,B2,768 ± 54
3,B3,5455 ± 412
4,B5,41985 ± 2942
5,B6,15393 ± 1271
6,B7,3220 ± 211
7,B8,9940 ± 899

# Same assay, conditions: lysates of HEK-293 cells transfected with the mutant form, incubated 5 days with 10 μM migalastat; mean ± SEM
row,Molecule,10 μM migalastat α-Gal A activity [nmol/mg/h]
1,B1,23153 ± 1847
2,B2,11083 ± 678
3,B3,29794 ± 1799
4,B4,2359 ± 333
5,B5,51524 ± 2970
6,B6,25029 ± 1628
7,B7,11903 ± 844
8,B8,14540 ± 903
